Tests used:
[1] = target: hydrophobin E24K (mutated at the 24th residue)
[2] = target: wild-type hydrophobin protein (HGFI)
[3] = Stabilization (serum stability / pharmacokinetic) study: circulating free GLP-1 in rats by GLP-1 (7-37) ELISA; assay type: in vivo; settings: Wistar rats, s.c., 500 μg GLP-1/kg, n = 6 per group
Description: The stabilities of wild-type hydrophobin/GLP-1 and hydrophobin E24K/GLP-1 complexes were investigated to determine whether the complex protects GLP-1 against protease degradation. Two complexes, hydrophobin/GLP-1 (pH 7.0, molar ratio of 1:10) and hydrophobin E24K/GLP (pH 4.0, molar ratio of 1:10) were administered subcutaneously to male Wistar rats (500 μg GLP-1/kg body weight, n = 6 per group), and blood samples from the rats were directly drawn into P700*, K2EDTA tubes (BD Biosciences, Franklin Lakes, NJ) by venipuncture at 0.5, 1, 4, 12, 24, 48, 72 and 96 h. Serum samples (200 μl) were immediately analyzed using a native GLP-1 (7-37) ELISA kit after being centrifuged for 20 min at 13,000 rpm. The amount of free GLP-1 measured in this assay was considered an indicator of the serum serum stability of the complex.

[4] = test system: insulin secretion; assay: Insulin stimulation assay after oral glucose administration; assay type: in vivo; settings: Wistar rats, s.c. 100 μg GLP-1/kg 30 min before oral glucose 10 g/kg, n = 3 per group, mean ± SE
Description: The insulin secretion assay was performed by injecting the complex (100 μg GLP-1/kg body weight) into male Wistar rats (n = 3 per group). Wild-type GLP-1 (100 μg/kg body weight) and saline were injected subcutaneously as controls. Glucose (10 g/kg body weight, a standard dose for oral glucose administration) was orally administered 30 min after injections of the complexes. […] Blood samples were assayed for insulin levels using a rat insulin RIA kit.

[5] = test system: INS-1 cells; assay: cAMP accumulation measurement (HTRF); assay type: cell-based, rat
Description: For the cAMP assay, INS-1 cells (1.0 × 10^5 cells) were seeded and plated in each well of a 96-well opaque white plate. […] Subsequently, 10 μg of GLP-1 or complex was added. The assay plate was treated with 2.5 μl/well cAMP and an equal volume of anti-cAMP conjugate (Cisbio) after a 1 h incubation. The homogenous time-resolved fluorescence (HTRF) signal was read on a SpectraMax M5 (Molecular Device) microplate reader. The ratio of […] at 665 nm and 620 nm (×10,000) was calculated and plotted.

[6] = test system: blood glucose; assay: Single-dose glucoregulatory assay (glucose tolerance test); assay type: in vivo; settings: Wistar rats, GLP-1 alone, glucose 2 g/kg i.p.
[7] = test system: blood glucose and HbA1c; assay: Long-term anti-diabetic activity (glucose, HbA1c) over 46 days; assay type: in vivo; settings: ZDF rats, 250 μg/kg body weight every three days, glucometer
Description: Male ZDF rats (n = 11 per group) were treated with complex (250 μg/kg/3 days) for the entire experimental period (46 days). The control groups were injected with wild-type GLP-1 (250 μg/3 days). HbA1c levels were assessed using a DCA 200 analyzer (Bayer Diagnostics), and glucose levels were monitored during the experimental period.

[8] = test system: dipeptidyl peptidase IV (DPP-IV); settings: cited from earlier work
Description: The extremely poor serum stability renders the therapeutic administration of GLP-1 impractical; therefore, many efforts have focused on altering the pharmacokinetic properties of GLP-1 by developing a series of complexes and analogs, such as exenatide, liraglutide and albiglutide. […] In ad ...

Row | Substance | AUC of free GLP-1 in the serum of Wistar rats within 96 h after subcutaneous injection of the complex, fold over GLP-1 alone (GLP-1 (7-37) ELISA) [1] [fold] | AUC of free GLP-1 in the serum of Wistar rats within 96 h after subcutaneous injection of the complex, fold over GLP-1 alone (GLP-1 (7-37) ELISA) [2] [fold] | time after administration at which circulating GLP-1 was undetectable [3] [h] | insulin level at 5 min after oral glucose [4] [pmol/L] | peak cellular cAMP level ([5]; INS-1 cells 1.0 × 10^5, 500 μM IBMX, 10 μg GLP-1, at 2 min, HTRF, mean ± SE) [pmol/10^5 cells] | time at which cAMP declined to baseline ([5]; INS-1 cells, HTRF-cAMP kit) [min] | time of cAMP peak ([5]; INS-1 cells, HTRF-cAMP kit) [min] | blood glucose in single-dose glucose tolerance test [6] | long-lasting glucose regulatory effect [7] | renal clearance (time) ([8]; in vivo) | lifetime in vivo ([8]; native GLP-1, in vivo, inactivation by DPP-IV) [min] | serum stability of GLP-1 ([8]; rapid degradation by DPP-IV) [min]
1 | glucagon-like peptide-1 (GLP-1) | 3 | 6.3 | – | – | – | – | – | – | – | – | – | –
2 | glucagon-like peptide-1 [GLP-1] | – | – | 4 | 827.09 ± 37.77 | 17.03 ± 0.94 | 10 | 2 | remained at high levels | failed to produce a similar glucose regulatory effect | less than 10 min | < 2 | 3 to 5
